Data published in patent publication US20050112119A1 (Takeda / Millennium, published 2005).
Substitutions are numbered along the chain they refer to. Blank lines part the entries; values can stand above or below the binder they belong to.

Assays:
[1] = target: T1, human CXCR3 (human, UniProt P49682 1-368); experiment: cell-based or functional assay
T1 sequence: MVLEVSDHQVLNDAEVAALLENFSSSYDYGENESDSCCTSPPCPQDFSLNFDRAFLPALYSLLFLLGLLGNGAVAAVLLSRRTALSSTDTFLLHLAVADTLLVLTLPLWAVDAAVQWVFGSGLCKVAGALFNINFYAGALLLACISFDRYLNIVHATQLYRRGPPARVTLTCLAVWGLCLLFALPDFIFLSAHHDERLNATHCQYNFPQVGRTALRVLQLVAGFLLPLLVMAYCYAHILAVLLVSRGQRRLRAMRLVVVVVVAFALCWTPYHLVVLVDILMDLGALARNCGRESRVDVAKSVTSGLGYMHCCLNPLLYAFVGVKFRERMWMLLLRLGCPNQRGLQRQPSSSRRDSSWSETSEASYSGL

[2] = target: T1, human CXCR3; experiment: flow cytometry on CXCR3 L1.2 transfectants, biotinylated antibody, streptavidin-PE; 100% is the fluorescence at 10 µg/ml
Procedure: The strength of human monoclonal antibody 5H7 and human monoclonal antibody 7H5 binding to CXCR3 was measured using CXCR3 transfectants. The mean streptavidin-PE fluorescence detected when 10 μg/ml of each purified mAb was used to stain CXCR3 transfectants was used as 100% fluorescence.

[3] = target: T2, human CCR5 (human, UniProt P51681 1-352); experiment: flow cytometry, hybridoma supernatant on L1.2 transfectants, PE anti-human IgG
T2 construct: whole, on cells
T2 sequence (P51681 whole entry): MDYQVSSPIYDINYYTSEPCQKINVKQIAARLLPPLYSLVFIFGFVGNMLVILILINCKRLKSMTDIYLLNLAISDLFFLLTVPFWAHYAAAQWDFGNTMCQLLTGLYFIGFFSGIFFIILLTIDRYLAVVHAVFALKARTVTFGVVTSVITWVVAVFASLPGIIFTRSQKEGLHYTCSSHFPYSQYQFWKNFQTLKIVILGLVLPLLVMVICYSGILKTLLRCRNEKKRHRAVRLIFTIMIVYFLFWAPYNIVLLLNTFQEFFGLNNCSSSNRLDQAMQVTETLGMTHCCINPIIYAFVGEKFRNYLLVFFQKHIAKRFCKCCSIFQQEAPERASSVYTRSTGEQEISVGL
Procedure: (§1) Three days after the last immunization, five animals were sacrificed, their spleen cells were isolated, combined and used to produce hybridomas by standard methods. About 3×10⁸ spleen cells were fused with 5- to 10-fold fewer SP2/0-Ag14 fusion partner cells (ATCC, No. CRL-1581, Manassas, Va.) or P3X63Ag8.653 fusion partner cells (ATCC, No. CRL-1580, Manassas, Va.), by brief resuspension in polyethylene glycol 1500 (50% in 75 mM HEPES, Boehringer-Mannheim, now Roche Applied Science, Indianapolis, Ind.), to generate the hybridomas. After fusion, the cells were selected by incubation for two weeks in hypoxanthine, aminopterin, thymidine (HAT) medium specificity was assessed by staining CXCR3 transfectants, control L1.2 cells and L1.2 cells that expressed human CCR1, CCR2, CCR3, CCR4, CCR5, CXCR1, CXCR2, or CXCR4 (Qin et al. (1998) J. Clin. Invest. 101:746-54). The binding of antibody from the hybridoma supernatants to receptor transfectants was detected by phycoerythrin-conjugated anti-human IgG with analysis by flow cytometry. Positive wells were those that contained supernatant which stained the CXCR3 transfectants, but not L1.2 cells which expressed the other chemokine receptors tested. Positive wells were subcloned to yield hybridoma cell lines. Hybridoma cultures were maintained in DMEM with 10% fetal calf serum, 10 units/ml interleukin-6, 0.1% L-glutamine, and 0.1% penicillin/streptomycin.

[4] = target: T3, human CCR1 (human, UniProt P32246 1-355); experiment: as above
T3 construct: whole, on cells
T3 sequence (looked up): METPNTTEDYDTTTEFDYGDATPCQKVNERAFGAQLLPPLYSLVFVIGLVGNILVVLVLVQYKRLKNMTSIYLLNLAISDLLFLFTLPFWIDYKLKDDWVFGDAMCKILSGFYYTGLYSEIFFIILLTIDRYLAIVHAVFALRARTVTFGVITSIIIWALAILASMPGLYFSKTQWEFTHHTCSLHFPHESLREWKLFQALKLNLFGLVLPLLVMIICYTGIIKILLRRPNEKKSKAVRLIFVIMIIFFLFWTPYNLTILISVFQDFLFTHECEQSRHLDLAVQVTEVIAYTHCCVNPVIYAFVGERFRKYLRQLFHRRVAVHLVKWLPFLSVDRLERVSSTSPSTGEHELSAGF
Procedure: as §1

[5] = target: T4, human CXCR1 (human, UniProt P25024 1-350); experiment: as above
T4 construct: whole, on cells
T4 sequence (looked up): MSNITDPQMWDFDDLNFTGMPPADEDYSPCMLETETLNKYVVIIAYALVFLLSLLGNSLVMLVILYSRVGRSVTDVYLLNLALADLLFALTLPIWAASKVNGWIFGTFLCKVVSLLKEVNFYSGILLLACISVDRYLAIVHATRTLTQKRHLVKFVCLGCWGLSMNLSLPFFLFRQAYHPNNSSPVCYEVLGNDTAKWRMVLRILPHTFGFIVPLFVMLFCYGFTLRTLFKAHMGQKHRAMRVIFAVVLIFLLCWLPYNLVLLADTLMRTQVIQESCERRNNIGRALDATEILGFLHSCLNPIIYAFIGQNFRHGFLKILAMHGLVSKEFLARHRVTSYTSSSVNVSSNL
Procedure: as §1

[6] = target: T5, human CCR4 (human, UniProt P51679 1-360); experiment: as above
T5 construct: whole, on cells
T5 sequence (looked up): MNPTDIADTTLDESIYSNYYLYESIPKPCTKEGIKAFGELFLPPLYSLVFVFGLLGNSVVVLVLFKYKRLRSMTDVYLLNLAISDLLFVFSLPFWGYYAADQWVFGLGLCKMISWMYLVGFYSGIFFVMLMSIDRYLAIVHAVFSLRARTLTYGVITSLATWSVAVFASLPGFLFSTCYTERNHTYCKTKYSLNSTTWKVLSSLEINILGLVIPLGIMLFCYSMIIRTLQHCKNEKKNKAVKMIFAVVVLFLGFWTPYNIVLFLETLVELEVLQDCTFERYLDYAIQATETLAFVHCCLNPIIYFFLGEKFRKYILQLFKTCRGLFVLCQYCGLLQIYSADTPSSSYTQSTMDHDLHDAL
Procedure: as §1

[7] = target: T6, human CXCR4 (human, UniProt P61073 1-352); experiment: as above
T6 construct: whole, on cells
T6 sequence (P61073 whole entry): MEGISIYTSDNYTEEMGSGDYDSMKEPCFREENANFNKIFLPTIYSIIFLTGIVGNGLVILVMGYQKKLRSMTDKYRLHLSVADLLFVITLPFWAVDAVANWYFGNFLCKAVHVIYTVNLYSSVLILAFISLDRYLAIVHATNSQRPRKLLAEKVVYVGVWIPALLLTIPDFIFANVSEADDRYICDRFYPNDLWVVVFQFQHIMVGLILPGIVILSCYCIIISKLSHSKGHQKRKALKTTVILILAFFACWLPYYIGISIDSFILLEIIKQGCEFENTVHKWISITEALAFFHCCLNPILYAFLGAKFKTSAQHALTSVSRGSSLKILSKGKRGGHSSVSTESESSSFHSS
Procedure: as §1

[8] = target: T7, human CXCR2 (human, UniProt P25025 1-360); experiment: as above
T7 construct: whole, on cells
T7 sequence (looked up): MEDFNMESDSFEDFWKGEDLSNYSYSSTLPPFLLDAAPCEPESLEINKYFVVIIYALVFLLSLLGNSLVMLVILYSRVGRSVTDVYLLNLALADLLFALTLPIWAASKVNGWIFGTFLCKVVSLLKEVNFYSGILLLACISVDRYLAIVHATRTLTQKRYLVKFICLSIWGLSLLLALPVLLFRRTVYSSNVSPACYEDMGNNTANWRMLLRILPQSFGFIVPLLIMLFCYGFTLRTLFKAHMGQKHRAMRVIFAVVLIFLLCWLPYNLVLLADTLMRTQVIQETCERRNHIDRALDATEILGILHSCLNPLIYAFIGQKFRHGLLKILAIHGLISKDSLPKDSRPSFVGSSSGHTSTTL
Procedure: as §1

[9] = target: T8, human CCR3 (human, UniProt P51677 1-355); experiment: as above
T8 construct: whole, on cells
T8 sequence (looked up): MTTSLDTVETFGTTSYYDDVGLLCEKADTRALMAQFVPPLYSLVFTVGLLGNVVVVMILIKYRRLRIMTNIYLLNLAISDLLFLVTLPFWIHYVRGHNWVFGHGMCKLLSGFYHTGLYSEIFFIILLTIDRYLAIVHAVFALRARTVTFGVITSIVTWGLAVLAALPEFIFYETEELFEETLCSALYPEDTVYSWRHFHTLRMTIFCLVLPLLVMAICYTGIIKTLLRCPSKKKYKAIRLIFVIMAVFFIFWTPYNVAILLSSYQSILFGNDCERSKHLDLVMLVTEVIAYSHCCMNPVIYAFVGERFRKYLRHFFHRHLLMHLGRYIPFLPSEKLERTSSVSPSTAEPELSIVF
Procedure: as §1

[10] = target: T9, human CCR2 (human, UniProt P41597 1-374); experiment: as above
T9 construct: whole, on cells
T9 sequence (P41597 whole entry): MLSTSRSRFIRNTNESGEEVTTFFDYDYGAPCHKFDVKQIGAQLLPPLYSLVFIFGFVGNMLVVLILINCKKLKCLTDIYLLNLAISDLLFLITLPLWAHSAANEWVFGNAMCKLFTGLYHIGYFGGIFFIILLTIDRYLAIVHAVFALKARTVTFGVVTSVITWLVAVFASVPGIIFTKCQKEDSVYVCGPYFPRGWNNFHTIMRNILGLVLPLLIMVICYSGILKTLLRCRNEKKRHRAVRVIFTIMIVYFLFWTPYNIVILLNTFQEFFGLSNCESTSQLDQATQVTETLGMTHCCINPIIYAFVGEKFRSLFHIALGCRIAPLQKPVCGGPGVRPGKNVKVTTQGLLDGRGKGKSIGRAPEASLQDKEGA
Procedure: as §1

- IC50 of inhibition of chemotaxis of CXCR3 transfectants toward I-TAC [1]: 1.2 µg/mL
- IC50 of inhibition of chemotaxis of CXCR3 transfectants toward IP-10 [1]: 0.7 µg/mL
- IC50 of inhibition of chemotaxis of CXCR3 transfectants toward MIG [1]: 2.9 µg/mL
- EC50 [2]: 0.5 nM
- binding result [3]: no binding
- binding result [4]: no binding
- binding result [5]: no binding
- binding result [6]: no binding
- binding result [7]: no binding
- binding result [8]: no binding
- binding result [9]: no binding
- binding result [10]: no binding
B1: human monoclonal antibody 5H7 (antibody, human IgG2, V domains shown)
VH: QVQVVQSGAEVKKPGASVKVSCKTSGYTFTGNYIHWVRQAPGQGLEWMGWINPNSGGTNFAQKFQGRVTMTRDTSITTAYMVLSRLRSDDTAVYYCARGGNNMIVVARGYYGMDVWGQGTTVTVSS
VL: DIQMTQSPSSLSASVGDRVTITCRASQSIGRYLNWYQQKPGKAPKLLIYGASSLQSGVPSRFSGSGSGTEFTLTISSLQPEDFATYYCQQSFRVPISFGQGTRLEIK
notes: The hybridoma antibody as tested is human IgG2, kappa; also called human mAb 5H7; antibody of hybridoma LS328-5H7-2-6 (ATCC PTA-5388)

- EC50 [2]: 1.2 nM
- binding result [3]: no binding
- binding result [4]: no binding
- binding result [5]: no binding
- binding result [6]: no binding
- binding result [7]: no binding
- binding result [8]: no binding
- binding result [9]: no binding
- binding result [10]: no binding
B2: human monoclonal antibody 7H5 (antibody, human IgG2, V domains shown)
VH: B1 VH with T24A, N32Y, N54D, F60Y, T77S, S84N, R98K, N101I
VL: B1 VL with A25T, L73F, T74I, S97T
notes: The hybridoma antibody as tested is human IgG2, kappa; also called human mAb 7H5; antibody of hybridoma LS329-7H5-2-19-7 (ATCC PTA-5389)
